In series [1] the target is rabbit HCN4 carrying an internal deletion (from residues 783 to 1064) (rabbit) (UniProt Q9TV66). Nature of the series: mass photometry; Refeyn OneMP; SEC peak fractions of the co-purified HCN4 - EGFP-TRIP8b complex in LMNG-CHS, 1 μL at 200 nM added to 10 μL buffer at room temperature, 60 s recording; no cAMP.
Series [2] deals with the molecule itself. Nature of the series: mass photometry; Refeyn OneMP; the same co-purified HCN4 - EGFP-TRIP8b complex with 2 mM cAMP added prior to mass photometry.

For the molecule “EGFP-tagged TRIP8b (1a), full-length mouse TRIP8b (splice variant 1a4) (from UniProt Q8C437 1-567) (natural protein)”, the stoichiometry N (TRIP8b per tetrameric HCN4) in series [1] came to 4.

B1: rabbit HCN4 carrying an internal deletion (from residues 783 to 1064) (natural protein, UniProt Q9TV66 1-1175, looked up)
chain: MDKLPPSMRKRLYSLPQQVGAKAWIMDEEEDAEEEGAGGRQDPRRRSIRLRPLPSPSPSPSAAAAAAGGAESRGAALGGAADGEGPARGAAKSSTNGDCRRFRGSLASLGSRGGGGGGGSTGGGSHGHLHDSAEERRLIAEGDASPGEDRTPPGLAAEPERPGAPAPPAASPPQVPSSCGEQRPADAAVKVEGGAAAGDQILPEAEARLGQAGFMQRQFGAMLQPGVNKFSLRMFGSQKAVEREQERVKSAGFWIIHPYSDFRFYWDLTMLLLMVGNLIIIPVGITFFKDENTTPWIVFNVVSDTFFLIDLVLNFRTGIVVEDNTDIILDPRRIKMKYLKSWFVVDFVSSIPVDYIFLIVETRIDSEVYKTARALRIVRFTKILSLLRLLRLSRLIRYIHQWEEIFHMTYDLASAVVRIVNLIGMMLLLCHWDGCLQFLVPMLQDFPDDCWVSLNNMVNNSWGKQYSYALFKAMSHMLCIGYGRQAPMGMSDVWLTMLSMIVGATCYAMFIGHATALIQSLDSSRRQYQEKYKQVEQYMSFHKLPPDTRQRIHDYYEHRYQGKMFDEESILGELSEPLREEIINFNCRKLVASMPLFANADPNFVTSMLTKLRFEVFQPGDYIIREGTIGKKMYFIQHGVVSVLTKGNKETKLADGSYFGEICLLTRGRRTASVRADTYCRLYSLSVDNFNEVLEEYPMMRRAFETVALDRLDRIGKKNSILLHKVQHDLSSGVSNYQENAIVQRIVQHDREMAHCARRAQATTPVAPAIWTPLIQAPLQAAQDLKLISASQPALPQDGAQTLRRASPHSSSGESVAALPPFPRAPGRPPGAGPGQHVTLTLPRKASSGSLPPPLSLFGPRAAPAGGPRLTAAPQREPGAKSEPVRSKLPSNL
notes: the extreme C-terminal SNL tripeptide is preserved; expected MW of the monomer 98.4 kDa; Cloned into the pCI vector; no tag is stated for HCN4; also called HCN4ΔC; modified HCN4 channels; source: HEK293-F, transiently co-transfected with TRIP8b; solubilised in detergent (LMNG-CHS), purified in complex with TRIP8b (Ni2+-NTA, Superose 6 SEC)
For orientation: stoichiometry N means the number of molecules, sites or subunits per partner or assembly. As for B1, the “stoichiometry N” value in series [2] amounted to 4.

For the origin of these results see article PMC9549148, “Validation of the binding stoichiometry between HCN channels and their neuronal regulator TRIP8b by single molecule measurements” (Frontiers in Physiology, 2022).
